Key:
[1] = target: T1, CD22 receptor on the Daudi cell line (human, UniProt P20273 20-847); assay: cell-based or functional assay
T1 sequence (looked up): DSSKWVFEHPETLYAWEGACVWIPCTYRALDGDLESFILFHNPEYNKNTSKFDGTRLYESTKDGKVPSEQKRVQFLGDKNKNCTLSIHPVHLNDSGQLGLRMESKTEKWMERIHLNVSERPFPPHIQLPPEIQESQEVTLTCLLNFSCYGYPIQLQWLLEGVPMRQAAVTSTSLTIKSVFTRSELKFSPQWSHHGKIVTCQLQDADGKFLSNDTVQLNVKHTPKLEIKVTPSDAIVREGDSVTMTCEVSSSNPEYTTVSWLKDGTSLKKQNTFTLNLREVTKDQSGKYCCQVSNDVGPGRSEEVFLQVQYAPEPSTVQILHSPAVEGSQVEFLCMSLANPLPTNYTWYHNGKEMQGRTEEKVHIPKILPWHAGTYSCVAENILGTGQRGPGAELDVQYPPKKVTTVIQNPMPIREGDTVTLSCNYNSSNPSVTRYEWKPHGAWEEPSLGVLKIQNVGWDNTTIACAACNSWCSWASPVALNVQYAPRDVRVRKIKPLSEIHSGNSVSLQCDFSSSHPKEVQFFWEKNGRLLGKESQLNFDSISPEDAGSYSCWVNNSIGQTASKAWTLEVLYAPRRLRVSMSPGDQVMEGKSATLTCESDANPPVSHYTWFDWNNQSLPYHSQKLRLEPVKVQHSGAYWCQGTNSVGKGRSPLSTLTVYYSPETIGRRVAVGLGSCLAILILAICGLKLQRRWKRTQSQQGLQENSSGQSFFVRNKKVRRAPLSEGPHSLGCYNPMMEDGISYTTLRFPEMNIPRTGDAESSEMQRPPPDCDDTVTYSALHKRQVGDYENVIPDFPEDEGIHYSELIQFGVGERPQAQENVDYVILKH

[2] = target: T1, CD22 receptor on the Daudi cell line; assay: cell-based or functional assay; remark: listed apart in the source

B1: CAT-8015 (other)
VH: MEVQLVESGGGLVKPGGSLKLSCAASGFAFSIYDMSWVRQTPEKCLEWVAYISSGGGTTYYPDTVKGRFTISRDNAKNTLYLQMSSLKSEDTAMYYCARHSGYGTHWGVLFAYWGQGTLVTVSAKASGGPEGGSLAALTAHQACHLPLETFTRHRQPRGWEQLEQCGYPVQRLVALYLAARLSWNQVDQVIRNALASPGSGGDLGEAIREQPEQARLALTLAAAESERFVRQGTGNDEAGAANGPADSGDALLERNYPTGAEFLGDGGDVSFSTRGTQNWTVERLLQAHRQLEERGYVFVGYHGTFLEAAQSIVFGGVRARSQDLDAIWRGFYIAGDPALAYGYAQDQEPDARGRIRNGALLRVYVPRSSLPGFYRTSLTLAAPEAAGEVERLIGHPLPLRLDAITGPEEEGGRLETILGWPLAERTVVIPSAIPTDPRNVGGDLDPSSIPDKEQAISALPDYASQPGKPPREDLK
VL: MDIQMTQTTSSLSASLGDRVTISCRASQDISNYLNWYQQKPDGTVKLLIYYTSILHSGVPSRFSGSGSGTDYSLTISNLEQEDFATYFCQQGNTLPWTFGCGTKLEIK
modifications: Asn-358 partially deamidated to Asp-358 and iso-Asp-358 in the preparations tested (extent differs by pool)
- Relative Potency (%) in apoptosis bioassay (Caspase-Glo 3/7, Daudi cells; EC50 of Reference Standard / EC50 of test sample); sample: QHP Eluate Pool, large scale (17% pre-peak) [1]: 75%
- Relative Potency (%) in apoptosis bioassay (Caspase-Glo 3/7, Daudi cells; EC50 of Reference Standard / EC50 of test sample); sample: QHP Load Pool, large scale (50.3% pre-peak) [1]: 51%
- Relative Potency (%) in apoptosis bioassay (Caspase-Glo 3/7, Daudi cells; EC50 of Reference Standard / EC50 of test sample); sample: QHP Eluate Pool, bench scale (16.5% pre-peak) [2]: 80%
- Relative Potency (%) in apoptosis bioassay (Caspase-Glo 3/7, Daudi cells; EC50 of Reference Standard / EC50 of test sample); sample: QHP Load Pool, bench scale (53.8% pre-peak) [2]: 52%
